In the nanobody polyreactivity screen of Harvey et al. (2022):

Assay: yeast display, Sf9 membrane polyspecificity reagent, FACS + sequencing; frameworks hold sequencing errors
Procedure, shortened: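 Polyreactivity labels are assigned by the sorting gate from which each nanobody was recovered. The gates were low and high (top ~1%), set on anti-HA fluorescence for expression and streptavidin fluorescence for reagent binding. Before sorting, galactose-induced (36–48 hours) yeast display cells were stained for 1 hour at 4 °C with 10% biotinylated, detergent-solubilized Sf9 membrane reagent.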

| Sequence | polyreactivity (PSR sort gate) |
| --- | --- |
| QVQLVESGGGLVQAGGSLRLSCAASGRTFESYAMGWYRQAPGTERELVAAITWSGGDTYYADSVKGRFTISRDNAKNTVYLQMNSLKPEETAVYYCAKEQGLYSVSPYDYWGQGTQVTVSS | low polyreactivity |
| QVQLVESGGGLVQAGGSLRLSCAASGRIFYEYAMGWYRQAPGKERELVAISTSGGNTYYADSVKGRFTISRDNAKNTVYLQMNSLKPEVTAVYYCAARLQYYPYYYWGQGTQVTVSS | high polyreactivity |
| QVQLVESGGGLVQAGGSLRLSCAASGIIFVAYARGWYRQAPGKERELVAAITWGGGRTYYADSVKGRFTISRDNAKNTVYLQMNSLKPEDTAVYYCAAVVWYDPRATYVYWGQGTQVTVSS | low polyreactivity |
| QVQLVESGGGLVQAGGSLRLSCAASGYIFPAYGMGWYIQAPGKERELVAAISWSTGSTYYADSVKGRFTISRDNAKNTVYLQMNSLKPEDTAVYYCDAGRPRRVPDHWYIYYYWGQATQVTVSS | low polyreactivity |
| QVQLVESGGGLVQAGGSLRLSCAASGSISYDYAMGWDRQAPGKERELVASITSRGGSTYADSVKGRFTISRDKAKNTVYLQMNSLKPEDTAVYYCAADAIPNLIFISLPFGLDYWGQGTQVTVSS | low polyreactivity |
| QVQLVESGGGLVQAGGSLRLSCAASGSTFSSYAMGWYIQAPGKERELVAAITSSGGTTYYSDSVKGRFTISRDNAKNTVYLQMNSLKPEDTAVYYCAAADVIFWLYYYWGQGTQVTVSS | low polyreactivity |
| QVQLVESGGGLVQAGGSHRLSCAASGSIFSTYAMGWYRQAPGKERELVAAITSDGTYADSVKGRFTISRDNARNTVYLQMNSLKPEDTAVYYCAAYYPYTRHGDYWGQGTQVTVSS | low polyreactivity |
| QVQLVESGGGLVQAGGSLRFSCAASGSTFQYYAMGWYRQAPGKERELVAAISYGGSRTYYADSVKGRFTISRDNAKNTVYLQMNSLKPEDTAVYYCANEKYRALAPYYYWGQGTQVTVSS | high polyreactivity |
| QVQLVESGGGLVQAGGSLRISCAASGSTFGDYTMGWYRQAHGKERELVAAITLTGGSTFYADSVKGRFTISRDNAKNTVYLQMNSLKPVDTAVYYCNTDVIRWVGGTWHRYYYWGQGTQVTVSS | low polyreactivity |
| QVQLVESGGGLVQAGGSLRLSCAASGYTFNFNAMGWYRQAPGKERELVAAITWNGGRTYYADSVKGRFTISRDNAKNTVYLQMNSLKPEDTAVYYCAARSYQRPSDTRYDYWGQGTQVTVSS | high polyreactivity |
| QVQLVESGGGLVQAGGSLRLSCAASGRTFYYYAMGRYRQAPGKEREFVASISYSGARTYYADSVKGRFTISRDNAKNTVYLQMNSLKPEDTAVYYCAASWRSGRGTYGYWGQGTQVTVSS | high polyreactivity |
| QVQLVESGGGLVQAGGSLRLSCAASGSIFVYYAMGWYRQAPGKERELVAAISSTGGRTYYADSVKGRFTISRDNAKNTVYLQMNSLNPEDTAVYYCAKDYGSYFIFLSYPRSRYDYWGQGTQVTVSS | low polyreactivity |
| QVQLVESAGGLVQAGGRLSLICAASGYTFYYHAMGWYRQAPGKERELVASIRSRGRSTYYADSVKGRFTISRDNAKNTVYLQMNSLKPEDTAVYYCAALPNKPAVYAYDYWGQGTQVTVSS | low polyreactivity |
| QVQLEESGGGLVQEGGSLRISCAASGRTFLRYVMGWYRQAPGKERALVAAISSRGGSTYYADSVKGRFTISRDNAKNTVYLQMNSLKPEDTAVYYCAARFKVRDYPDGNYEYWGQGTQVTVSS | high polyreactivity |
| QVQLVESGGGLVQAGGSLRLSCAASGLTFFKYTMGWYRQAPGKERELVAAISSSGGSTRYADSVKGRFTISRDNAKNTVYLQMNSLKPEDTAVYYCAKRGYTSSRRWIYDYWGQGTQVTVSS | high polyreactivity |
| QVQLVESGGGLVQAGGSLRLSCAASGFNFYSNAMGWYRQEPGKERELVADINRGGTSTYYADSVKGRFTISRDNAKNTVYLQMNSLKPEDTAVYYCNAGLRYRSRLWNIYWYDYWGQGTQVTVSS | high polyreactivity |
| QVQLVESGGGLDQAGGSLRLSCAAAGSIFDYYAMGSYRQAPGKERELVAAISWSGGSTYFADSVKGRFTISRDNAKNTVYLQMNSLKPEDTAVYYCAARGFWGQGTQVTVSS | low polyreactivity |
| QVQLVESGGGIVQEAGSLSLSCAASRLTFTTYNMGWSRPAPGKERELVAALSSRGGSTYYADSVKGRFTISRDNAKNTVYLEKNSLKPEDTAVDYCNAPRPHRMDWGQGTQVTVSS | high polyreactivity |
| QVQLVESGGGLVQAGGSLRLSCAASGLTVKWNAMGWYREAPGKETELFASITSGGSTNYADSVKGRFTISRDNAKNTVYLQMNSLKPEDTAFYYCNAEYYLFKRPYSYYYWGQGTQVTVSS | low polyreactivity |
| QVQLVESGGGLVQAGGSLRLSCAASGYTFTVYPMGGYRPAPGKERELVAAIRDGSSTNYADSVKGRFTISRDNAKNTVYLQMISLKPEDTAVYYCNAYSQSWNFYGDGDYWGQGTQVTVSS | low polyreactivity |
| QVQLVESGGGLVQAGGSLRLSCAASGFIFSLYAMGWYRQAPGKERELVGAITRSGGSTYYADSVKGRFTISRDNAKNTVYLQMNSLKAEDTAVYYCAVSACYHYNYWGQGTQVTVSS | high polyreactivity |
| QVHLVESGGGLVQAGGSLRLSCPASGRTFYRKAMGWDRQAPGKERELVAAITSGGGTTYADSVKGRFTISRDNAKNTVYLQMNSLKPEDTAVYYCAAGRVRRRVLYNYWGQGTQVTVSS | high polyreactivity |

| Sequence | polyreactivity (PSR sort gate) |
| --- | --- |
| QVQLVESGGGLVQAGGSLRLSCAASGRIFKYYAMGWYRQAPGKERELVAAISWTGVSTYYADSVKGRFTISRDNAKNTVYLQMNSLKPEDTAVYYCNAQSYRYPKDDYWGQGTQVTVSS | high polyreactivity |
| QVQLVESGGGLVQAGGSLRLSCAASGSTFRQNALGWYRQAPGKERELVAAITYRVASTYYADSVKGRFTISRDNAKNTVYLQMNSLKPEDTAVYYCAAYKRRSNGRYWTYDYWGQGTQVTVSS | high polyreactivity |
| QVQLEESGGGLVQAGGSHRLSCAASGFIFDRNAMGWYRQAPGKERELVAAITRSGGNTYYADSVKGRFTISRDNAKNTVYLQMNSLKPEDTAVYYCAKDVIQWSVSASYRFGYWGQGTQVTVSS | high polyreactivity |
| QVQLVESWGGLVQAGGSLRLSCAASGRIFANYGMGWYRQAPRKERELVAAIDRSGGTTFYADSVKGRFTISRDNAKNTVYLQMNSLKPEDTAVYYCAAALSYWYYAYYYWGQGTQVTVSS | low polyreactivity |
| QVQLVESGGGLVQAGGSLRLSCAASGRIFGSYGMGWYRQAPGKEWELVAAITPSGTSTYYADSVKGRFTISRDNAKNTVYLEMNSLKPEDTAVYNCNALFYRRYAFAFGYWRQGTQVTVSS | high polyreactivity |
| QVQLVESGGGLVQAGGSLRLSCAASGFTFNDYAMGWYRQAPGKERELVAAIDWSGGRTYYADSVKGRFTISRDNAKNTVYLQMNSLKPEDTAVYYCAAVLYSRLYLYRLDYWGQGTQVTVSS | low polyreactivity |
| QVQLVESGGGLVQAGGSLRLSCAASGSIFTAYTMGWYRQAPGKERELVAVISDSSGRTYYADSVKGRFTISRDNAKNTVYLQMNSLKPEVTAVYYCAAEYSDIYEYWGQGTQVTVSS | low polyreactivity |
| QVQLVESGGGLVQAGGSLRLSCAASGRIFGLNAMGWYRQAPGKEREIVAAIRWRGGSTYYADSVKGLFTISRDNANNNVYLLMNSLKPEDTAVYYCAADRNLGVSRYGYWGQGTQVNVSS | high polyreactivity |
| QVQLEESGGGLVQAGASLRLSCAASGFIFTSYAMGWYRQAPGKEREFVAASSRRGGSTYYADSVKGRFTISRDNAKNTVYLQMNILKPEYTAVYYCAADPKQHAGYEYWGQGTQVTVSS | high polyreactivity |
| QVQLVESGGGLVQAGGSLRLICDASGSIFGDYVMGWYSPAPGKERELVAAITSATSTYYADSVKGRFTISRDNAKNTVYLQMNSLKPEDTAVYYCKADATYPLWPNIWYDYDYWGQGTQVTVSS | low polyreactivity |
| QVQLVESGGGLVQAGGSLRLSCAASGRIFWYYAMGWYRQAPGKERELVAAITRSGASTYYADSVKGRFTISRDNAKNTVYLQMNSLKPEDTAVYYCAARGRWNVPARRDYWGQGTQVTVSS | high polyreactivity |
| QVQLVESGGGLVQAGGSLRLSCAASGFTYGINAMGWYRQAPGKERELVASISSGSSTTYADSVKGRFTISRDNATNTVYLQMISLKPEDTAVYYCNARPFHIYWRYDYWGQGTQVTVSS | low polyreactivity |
| QVQLVESGGGLVHAGGSLRLSCAASGRIFQYYAMGWYRQAPGKERELVAAIDQSGDTTYYADSVKGRFTISRDNAKNTVYLQMNSLKPEDTAVFYCAAGYDWAYHWVPQWMYFWGQGTQVTVSS | low polyreactivity |
| QVQLVESGGGLVQAGGSLRLSCAASGITIRYNAMGWYRQAPGKERELVAAISRGGDRTYYADSVKGRFTISRDNAKNTVYLQMNSLKPEDTAVYYCAADWSEKYEYWGQGTQVTVSS | high polyreactivity |
| QVQIEESGGGLVQAGGSLRLSCAASGSTFGYYAMGWYRQAPGKERELVAAISRGGSTYYADSVKGRFTISRDIAKYTVYLQMHSLKPEDTAVYYCNAVRYLEYDWGQGTQVTVSS | high polyreactivity |
| QVQLVESGGGLVQAGGSLRLSCAASGFTFTIYTMGWYRQAPGKERELVAAISRRGGSTYYADSVKGRFTISRDNAKNTVYLQMNSLNPEDTAVYYCAAYVPQGYKLYYWGQGTQVTGSS | high polyreactivity |
| QVQLVESGGGLVQAGGSLRLSCAASGRTFTFNTMGWYRQAPGKERELVAAITISDGRTYYADSVKGRFTISRDNAKNTVYLQMNSLKREVTAVYYCAAVQKYGYYWRHNDYWGQGTQVTVSS | low polyreactivity |
| HVQLQETGGGLVQAGGSLRLSCAASGSIFQATYMGWYRQAPGKEREFVASITYGSITIYADSVKGRFTIGRDNAKDTLYLQMNSLKPEDTAVYYCAVDRHYIPAFHYWGQGTQVTVSS | low polyreactivity |
| QVQLVESGGGLVQAGGSLRLSCAASGYTFKRYAMGWYRQAPGKESDLVASITRRGGSTYYADSVKGRFTISRDNAKNTVNLQMNSLKPEDTAVYDCAKSIPLGYTIYDYWGQGTQVTVSS | high polyreactivity |
| QVQLVESGGGLVQAGGSLRLSCAASGSIFKTYAMGWNRQAPGKEREFVARITSSGGRTYYADSVKGRFTISRDNAKNTVYLQMNSLKPEDTAVYYCAKPYPRGYTTYSYDYWGQGTQVTVSS | high polyreactivity |
| QVQLVESGGGLVQAGGSLRLSCAASGRIFSVYAMGWYRQAPGKERELVAGITSSGGSTYYADSVKGRFTISRDNAKNTVYLQMNSLKPEDTAVYYCNAYSQYWLGNNYWGQGTQVTVSS | high polyreactivity |
